Results from the DeepSol protein solubility set.

Assay: soluble on expression in E. coli; label from the status in PepcDB or PDB records

Sequence | soluble on expression in E. coli
MGSDKIHHHHHHMKLADIYAHFQEDIFTIERELEEAVQARHDILRKASVHLLKAGGKRIRPVFVLLAGKFGTYDVNVLKHIAVPLELIHMASLVHDDVIDDADLRRGKKTIKSQWDNRIAMYTGDYMFAKAVQTATYFDDPNIHQIISNAINEMCLGEVEQIRDQYNPNQHLRIYFRRIKRKTALLIAVSCQLGALAAKADPAIVQKLYYFGYYVGMSFQITDDVLDFVGTEEQLGKPAGSDLLQGNVTLPALYALHHDMHAKRLIEQVLADRGNNSVHMEEVIAAIVSSGGIDYALSISDLYLKKAMRMLDHLPDDEPKQFLQEIANYIGRRKF | not soluble
MGSDKIHHHHHHMDTSSREHDLVIYGATGFVGRLIAVYIAEHAPAGMRVGLAGRSNSRLEAVRAELPAAAHGWALIEASSEDADSIAALAANTRVLFTTVGPYAKHGLPVVEACARAGTHYADLAGEVFFIREAIDCYDALARTSGARIVHSCGYDSVPSDLAVLLLHQAAEADGAGGLVEVQLEARARAGISGGTLESMRGQLDAMRSSTALRSLAADPYALSPDRTREPTTPQPPDAGPVRRSADGTWTAPFIMAPFNTRIVRRSNALQRWAYGRSLQYGEVMGVAPGPAGAVIPRAMALGLRAFTGAMAFPPTRKVLDRFLPAPGTGPSTSTQRAGWFHSQVTARTEDGQRYQAIAAGPGDPGYAATAVMAGETALALALDGDRLPTAKGSLTPATALGNVLIQRLRAAGHTYQVSKLA | not soluble
GGSGGTSTAGNPNVNVPNNQITAKSKKEFIQQAMPIAKAIEEKWGVPAEVVIAQAALESGWGKHVKGNAYFGIKGKGSQGSINFGTHEVINGKKISINDNFASYGGFGDAANGYGEFLNKNKRYREAFKHKDNPVEFAKAIARAGYATDPDYANKLTKIIQSNKF | not soluble
MFETCEAIVMRTVDYGETNKIVTLFTREWGKVAAMARGAKKPSSRLSAVTQPLSYGHYVIRRSRGVGVLHQGELIDSMRALREDLFAAAYAVYIVELTDKSTEEQKRNPYLFELLLQTLQYMSEGRDLEILTFIYEMKMLAVLGIPPVLDRCARCGATEGRFSFSVKEAGFLCHRCEASDPHRFPLSSASVRLLRLFFHIDLARLGSISVKESTKMELGSVLSAYYDEYAGLSLKTKRFLQQIGELKDKLSPDGGQGASFSL | not soluble
MKILHTADWHLGQTFYEYDRREEHLHFLEWLKQQIRQHEIDVLLIAGDVFDSPNPSAESQRMYYRFLREVTSENPSLQIIIIAGNHDSAARLEAPNPLLENMNVTVRGVVRRNAEGDIDLQHLIVPLYTEGEVTAYCLAVPYLRQGDYPSAENYSKGVQLLYEQLFNEVKEKGLPVIAMGHLQATGSEISEDDRSERTVIGGLECVSPDAFDEAIAYTALGHLHRSQRVSHRENVRYSGTPMPMSFAERNNASGVVMITISAEGTGIERLA | not soluble
GPGSMGSGYLKRKRQRQELLNDFYSALSLSSFDTTSGQFSKLVTRTVYHYPSSLPFPVLLDDDFPAEPYRSRNKDIKSAIHWGQRKLLLSEIQLLSMYCRPEISYHIVYAGAAPGTHLAFLDEMFSCRHTWELIDPGQFDRAVLEPRANFRLRNEFFTNATAYGINARRLTEVLPALGFVYQNVAVDSVQVDKKAIHEQLQDIVGTLDVARGTEDIPAMYEAPLSLPKGLELLAQVALERNKPLLFISDIRSGSVALPNFEDHVAENMRAQECWTNILHGEHSMLKFRLPYTSKSTKFGGQGAVRETLLIREDGTVPYLRGDMLLPIWTRPTSTEGRLVVPQGAFQKDYNVAHVEDQFFFFNSSVREQVHFNHLVAHDSELDHHYDAAAEVHCLLTYLRFIRPELKTAKTGELRKEVLRVAHSITAHLGITFEDAIRRRDALMINHAKKSQNKAVEGHKDDAYGDEEAEEQEAKSAASKVRAGSNESAAAADGAATSTTAPVPPSEWEQTTRLMVRLSNYDRNRSVWSRNVREEEHSKTSGFWVTTKMPQA | not soluble
SEMIVDHRQKAFELLKVDAEKILKLIRVQMDNLTMPQCPLYEEVLDTQMFGLSREIDFAVRLGLVDEKDGKDLLYTLERELSALHDAFTAK | not soluble
MADSSSSSFFPDFGLLLYLEELNKEELNTFKLFLKETMEPEHGLTPWNEVKKARREDLANLMKKYYPGEKAWSVSLKIFGKMNLKDLCERAKEEINWSAQTIGPDDAKAGETQEDQEAVLGDGTEYRNRIKEKFCITWDKKSLAGKPEDFHHGIAEKDRKLLEHLFDVDVKTGAQPQIVVLQGAAGVGKTTLVRKAMLDWAEGSLYQQRFKYVFYLNGREINQLKERSFAQLISKDWPSTEGPIEEIMYQPSSLLFIIDSFDELNFAFEEPEFALCEDWTQEHPVSFLMSSLLRKVMLPEASLLVTTRLTTSKRLKQLLKNHHYVELLGMSEDAREEYIYQFFEDKRWAMKVFSSLKSNEMLFSMCQVPLVCWAACTCLKQQMEKGGDVTLTCQTTTALFTCYISSLFTPVDGGSPSLPNQAQLRRLCQVAAKGIWTMTYVFYRENLRRLGLTQSDVSSFMDSNIIQKDAEYENCYVFTHLHVQEFFAAMFYMLKGSWEAGNPSCQPFEDLKSLLQSTSYKDPHLTQMKCFLFGLLNEDRVKQLERTFNCKMSLKIKSKLLQCMEVLGNSDYSPSQLGFLELFHCLYETQDKAFISQAMRCFPKVAINICEKIHLLVSSFCLKHCRCLRTIRLSVTVVFEKKILKTSLPTNTWLKFITFPDGCQDISTSLIHNKNLMHLDLKGSDIGDNGVKSLCEALKHPECKLQTLRLESCNLTVFCCLNISNALIRSQSLIFLNLSTNNLLDDGVQLLCEALRHPKCYLERLSLESCGLTEAGCEYLSLALISNKRLTHLCLADNVLGDGGVKLMSDALQHAQCTLKSLVLRRCHFTSLSSEYLSTSLLHNKSLTHLDLGSNWLQDNGVKLLCDVFRHPSCNLQDLELMGCVLTNACCLDLASVILNNPNLRSLDLGNNDLQDDGVKILCDALRYPNCNIQRLGLEYCGLTSLCCQDLSSALICNKRLIKMNLTQNTLGYEGIVKLYKVLKSPKCKLQVLGQQDFQAAQGKLQQRRPLKPLRPGQVNRKLKTEKETQNCRLSRRRIGPLETADQSQAAGARPAAGLRLRFRGLGD | soluble
MLAKDSSLTRTGKGEIVDKDSSFTWYVGTIDEANAFIGLARVFSKDEKVRETLLEIQKMLFLVGAEPSLQKLSEKDLEWMLERVEEFERSVKKPHCFIILEKDESTAFLSVARAVVRRAERQAVRLYREGKARLLVVEWLNKLSYLLYLMILKEGGGDFEEI | not soluble
MGSGGVVHCRCAKCFCYPTKRRIRRRPRNLTILSLPEDVLFHILKWLSVEDILAVRAVHSQLKDLVDNHASVWACASFQELWPSPGNLKLFERAAEKGNFEAAVKLGIAYLYNEGLSVSDEARAEVNGLKASRFFSLAERLNVGAAPFIWLFIRPPWSVSGSCCKAVVHESLRAECQLQRTHKASILHCLGRVLSLFEDEEKQQQAHDLFEEAAHQGCLTSSYLLWESDRRTDVSDPGRCLHSFRKLRDYAAKGCWEAQLSLAKACANANQLGLEVRASSEIVCQLFQASQAVSKQQVFSVQKGLNDTMRYILIDWLVEVATMKDFTSLCLHLTVECVDRYLRRRLVPRYRLQLLGIACMVICTRFISKEILTIREAVWLTDNTYKYEDLVRMMGEIVSALEGKIRVPTVVDYKEVLLTLVPVELRTQHLCSFLCELSLLHTSLSAYAPARLAAAALLLARLTHGQTQPWTTQLWDLTGFSYEDLIPCVLSLHKKCFHDDAPKDYRQVSLTAVKQRFEDKRYGEISQEEVLSYSQLCAALGVTQDSPDPPTFLSTGEIHAFLSSPSGRRTKRKRENSLQEDRGSFVTTPTAELSSQEETLLGSFLDWSLDCCSGYEGDQESEGEKEGDVTAPSGILDVTVVYLNPEQHCCQESSDEEACPEDKGPQDPQALALDTQIPATPGPKPLVRTSREPGKDVTTSGYSSVSTASPTSSVDGGLGALPQPTSVLSLDSDSHTQPCHHQARKSCLQCRPPSPPESSVPQQQVKRINLCIHSEEEDMNLGLVRL | soluble
MGSDKIHHHHHHMDPRHRRGARLRHHQRDVARGGSVPARRQAHRRVARGLGEPVFVTHLVFFCGHAGTGKTTLAKRLIGPLMRATGEAFCLLDKDTLYGRYSSAAMGALTSDPNDRDSPLYLKHLRDPEYQGLLDTARENLALGIGALVVGPLSREVRDRRILDRAWLGIGPEIALTVVWVHTAEDVAHQRIVARGNPNDAYKLAHWDEYRQRRFVPTGHECDGIVMFDNTAPSDADIDALLYRIVPPAPQATMVPPLPA | not soluble
MINRPSTVNNPFIGTNAVLRLRQQRLEQSTKPFRARGSRVMRCQQCLLPAINCLCHTIQAQPSRSRVCLVMFDTEPLKPSNTGRIIADILPETQAFRWSRTEPDPQLLATLQDPDVQPYLVFLADAAEEGRQVFQQLPATEKPALFVLLDGTWPEARKMFRKSPYLDNLPILSLNVEALSRYQLREASSAGQHCTAEIAIALLAQAGDIVAADALSQHFDRFRQHYLAGKPHHRLQENLPIVTAQPAESVLEHHHHHH | not soluble
MMDYPSIDTLLESAHIVTLPMKYPFMGLSERQAVLFEGPNSWAEYSPFMGCNDTRMWLASAIEYGWGNTNVLSVPNLDLDNTNFASRSKYGYIANPQTSNKDHSDNKRFYTQTKNHREIPVNAILPDIPASKMSEILGKDLQGCKCVKIKVGKHFQDRDIHRIRAVLDFMGADTMLRLDANCKWNVSETLNNLDVLEDNDLLENVSYIEQPCRTTRELITLKQKMDTRGYVTKIAIDESLRDLLLHWQKNRKWSNNSGITYTTELRETLSACDMLVLKLQPMGGMRAVADLLESIKNNIKVNVGYTVSSSLETSLGIEMGLALALNLPNITLPVGLATAGLLDADITDDPLLPNKGYITPRKIEVNKKLLNRYAADKRHVVWWHRRIRAAHRALFQDLSD | soluble
MFAERLKELRKREAGLTQERLAMQLGMAKTTLASYEQGKRQPDLETLSKIADRFSVTTDYLLGKNGTPKWATKKDTIDLKDFLEANEGSMTYGGEDLTEEEKQQVRVAMATIFWKRHKHD | not soluble
MSLKLISNDLRDGDKLPHRHVFNGMGYDGDNISPHLAWDDVPAGTKSFVVTCYDPDAPTGSGWWHWVVVNLPADTRVLPQGFGSGLVAMPDGVLQTRTDFGKTGYDGAAPPKGETHRYIFTVHALDIERIDVDEGASGAMVGFNVHFHSLASASITAMFSEGGSHHHHHH | soluble
MANVEAIPGYLTATFPTLPIEIKDYVSAILKENSDEITSLDEVMDAVGEHLQASVENLCEVGAKNACQQLLKLLHGDNLPKAIKQQEATTKRLEQTVDMAAENQNFEALQSIWKVQTRDTPTTVDKKKLAKAEDRAAAKAEARADAPVERKKKKNEPSATASQAPIRDSGARGANSKDIKLESVDISIGTKQLLSCADVTMAFGRRYGLVGRNGIGKTTLLKMISSQQLKIPAGISMLSVEQEVEGDDTLVLDAVLMSDTKRQTLLDREKTLQSRINKDNINDAEKTKWNDELSKLYIEMEALQLDKAPARASSLLYGLGFTPDEQKRPTKEFSGGWRMRVALARALFVKPDLLLLDEPTNMLDMRAVYWLEGHLQGWEGTILTVSHDRKFLNEICTDIVHLHTRRLDHYKGNYDQFEKTMKEKLTQQQREYESQQQLRQHTQEFIDKFRYNAKRAPMVQSRIKMLEKLPVLLPVELESDIHFKFPECEVLSNPVLQLDEVSFRYNEDSPYLFRKLNLGTHANSRICIVGENGAGKTTLLKLLLDDLQPSVGLRNVNRRIRIAYFTQHHVDQLDMETSAIEVLMKNHPGKTQEDYRAALGRFGLAGDMALQSVETLSGGQKSRLAFANLALMQPNYLILDEPTNHLDVETVEALGKALNVFNGGVVLVSHDEQLIELVCKELWVVKDRMVTTLEGGLEEYRKQVYKQLQLTA | not soluble
MGSDKIHHHHHHMHQPSDFQVFRTLDRTSNARLLRSSTLSDGLALAHWYRDEAEILGYSDPGHHTLSLYLQGGWQTFRRDRPGLYGGPDRFCVMPAEHHSDWAVTRGLGFMHLYISPERLAGAAVRTLDCEPRSLQLEERTYIQDEPLAALCRTLERQDWNEPGEHLLCTSLAHQAVDHLLLTGCGRRTDVRWQGGLAAHVRRRLADYIESHLEQPLELGSLAELAALSEYHFARMFRVSFGLPPHRYVLERRLARARDLLAYSAQPLQEVSLACGFASPSHFNRRFREAHGATPGQYRAALKAS | not soluble
